Laboratory results from the supplement of paper PMC10724198.
± gives the standard deviation of the averaged measurements.

Test system: Saccharomyces cerevisiae
Experiment: protein stability index of tFT-peptide fusion (C-terminal peptide) (PSI (0-1 scale)); higher = more stable (slower turnover)
Details: genetic background: wild type; temperature: 30 C
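Also: PSI is a weighted mean of sequencing reads over stability bins, variants kept only with over 10 reads, mCherry proximal and sfGFP distal, peptide attached via GGGS linker.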

| Sequence | protein stability index |
| --- | --- |
| VLGVTVRFRGIS | 0.642 ± 0.057 |
| LPPGSTPDSPTL | 0.706 ± 0.028 |
| IWCSCWPGNWET | 0.823 ± 0.12 |
| YIKKTTPTIERG | 0.7157 ± 0.0039 |
| TAKQDSGVSTPV | 0.732 ± 0.12 |
| VGRGCVLGVWEG | 0.715 ± 0.035 |
| VSGPTPAPLSSL | 0.695 ± 0.028 |
| GGVSKGLGARGR | 0.601 ± 0.042 |
| GSRRSGITSYAN | 0.687 ± 0.011 |
| RTGTGTRTRPSR | 0.701 ± 0.066 |
| VRFKDFDDLGSL | 0.704 ± 0.067 |
| LLDLVVTAMCVL | 0.587 ± 0.032 |
| WRLAVDLGRFCT | 0.617 ± 0.16 |
| SIKGLVRSIALN | 0.638 ± 0.0064 |
| KIRKYTKGQIMQ | 0.687 ± 0.007 |
| SLSLRPPPYPPP | 0.578 ± 0.0096 |
| PGRSATSCPFLG | 0.671 ± 0.019 |
| PRPPSSSPHPHP | 0.727 ± 0.095 |
| GGMDEVFRAHGP | 0.712 ± 0.018 |
| CRLRHPFPLSTR | 0.644 ± 0.052 |
| VPMVFSIYFGVS | 0.563 ± 0.012 |
| SFGLRCPASRGS | 0.648 ± 0.052 |
| SRLVCSTLHWRD | 0.699 ± 0.021 |
| VRESLGANACSR | 0.69 ± 0.058 |
| PVFLQRVIPRSR | 0.678 ± 0.096 |

| Sequence | protein stability index |
| --- | --- |
| SVGGGGGAVGGG | 0.68 ± 0.007 |
| LRVYIRAAWVGL | 0.604 ± 0.016 |
| GYRNIEYGFGSG | 0.575 ± 0.061 |
| TVFGLLHALLYS | 0.724 ± 0.037 |
| PVPASSSRSLLL | 0.671 ± 0.0095 |
| DDGRDTLCGRGS | 0.68 ± 0.042 |
| PSRLSKTLLMGW | 0.676 ± 0.07 |
| DLPRCPPSPPPS | 0.713 ± 0.046 |
| VLVRYSAGTGGT | 0.605 ± 0.013 |
| PWVSGGMGKGDV | 0.686 ± 0.0075 |
| NVNMGSRGQFNF | 0.628 ± 0.026 |
| FTVSPFIFLFSP | 0.653 ± 0.0074 |
| VHESARAAGSDW | 0.647 ± 0.062 |
| KPVGLPGRIRLG | 0.751 ± 0.02 |
| RGGGGGEWGEQR | 0.702 ± 0.046 |
| SHIPRNLSPFSS | 0.754 ± 0.056 |
| STGLITYNYSVC | 0.648 ± 0.024 |
| IRCGQFSVVSES | 0.6 ± 0.028 |
| SLKHRSSLRQLI | 0.519 ± 0.01 |
| GGRGGVWWVGRV | 0.675 ± 0.037 |
| LTPAPSSCLRSP | 0.6857 ± 0.005 |
| WILFQAGSREIR | 0.701 ± 0.017 |
| GDDGGSGGCVER | 0.6606 ± 0.0051 |
| TLPPPPLSTPTL | 0.643 ± 0.1 |
| PSLSPSLLRFNL | 0.66 ± 0.015 |

| Sequence | protein stability index |
| --- | --- |
| MMFRRLPTRGRF | 0.6951 ± 0.0021 |
| GCPSGRDIQSSH | 0.643 ± 0.01 |
| NVEFVVERIREK | 0.6 ± 0.027 |
| PSPPPVSPVVPP | 0.672 ± 0.036 |
| ENCDSAEPGTRV | 0.676 ± 0.033 |
| RNTIKTKKSNYV | 0.654 ± 0.015 |
| GGVTEGPGWCVR | 0.735 ± 0.017 |
| RIEIVDVQFLWE | 0.7 ± 0.048 |
| SRKSDTMPSYPL | 0.791 ± 0.26 |
| LVRLNSHRYTSV | 0.613 ± 0.035 |
| RTLEIYRGLTNE | 0.648 ± 0.094 |
| LTRRCPVGAWGN | 0.692 ± 0.012 |
| PPRPPSSPLPPR | 0.733 ± 0.055 |
| SVLAVSFLSLLV | 0.636 ± 0.04 |
| VSKYNGIKRRNG | 0.6 ± 0.0085 |
| GVGQEGVGGRAV | 0.707 ± 0.03 |
| CPTLSSHLLFPS | 0.659 ± 0.087 |
| PLLTFSPLPGLS | 0.696 ± 0.034 |
| GCSGRRGRGGRG | 0.743 ± 0.046 |
| TSPTIPSTPFSN | 0.704 ± 0.087 |
| QDLDTALLLHAF | 0.657 ± 0.018 |
| GGPVEQVYSKGR | 0.721 ± 0.042 |
| VCVSLNVGGVRF | 0.658 ± 0.024 |
